In article PMC4678825:

Target: Qβ replicase core complex (β-subunit, EF-Tu and EF-Ts), wild type (E. coli | bacteriophage Qβ)
Assay: SEC-MALS

Qβ replicase core complex (β-subunit, EF-Tu and EF-Ts), wild type
stoichiometry N: 2
